In the supplement of paper PMC10567573:
± gives the standard deviation.

Test: protein stability index of a GFP-peptide fusion (GPS, HEK-293T) (PSI 1-6); higher = more stable
Details: c terminus: a fixed tail appended
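Further: 24-mer peptide tiles fused after GFP, lentivirally expressed, FACS-sorted into six equal bins by GFP/DsRed ratio, decoded by Illumina sequencing, PSI is the read-weighted mean bin number.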

Sequence | protein stability index (treatment: DMSO) | protein stability index (treatment: MLN4924 1 uM, 8 h)
NRRMVGPDVIPLPHIYGARIKGVE [FAM189A2] | 3.19 ± 0.11 | 3.15 ± 0.27
TAFNFFKMAVSRHLTRGRKMAHVI [BRF1] | 2.66 ± 0.61 | 2.33 ± 0.36
KLFDVPSLNGVYPRMNEVYTRLGE [CEP70] | 2.65 ± 0.17 | 2.53 ± 0.34
ILIELAMRGRIYLEPPTMRKKRLL [GOLPH3L] | 2.66 ± 0.25 | 2.74 ± 0.66
KGAAAAAAASGAAGGGGGGAGAGA [INTS3] | 5.26 ± 0.42 | 5.3 ± 0.27
VNMYVSIVFFGLISFDRYYKIVKP [P2RY14] | 3.66 ± 0.41 | 3.06 ± 0.28
VSEFLKVAEQVGIDKGDIPDLTQA [SNAP91] | 4.18 ± 0.45 | 4.13 ± 0.44
PRARRRLGSGPDRELRKPEEPENG [PWWP2B] | 5.43 ± 0.14 | 5.42 ± 0.2
SLTLEDVAVDFTWEEWQFLSPAQK [ZNF649] | 3.83 ± 0.11 | 3.95 ± 0.12
EFNHTGELLATGDKGGRVVIFQRE [PPP2R2B] | 3.18 ± 0.24 | 3.19 ± 0.22
LICLKKNHEEEVNTLRSQLGDRLN [KRT34] | 3.33 ± 0.21 | 3.45 ± 0.37
KNGLPSPERSYVFNGDFVDRGKDS [PPEF2] | 4.7 ± 0.079 | 4.76 ± 0.18
FFIYGQVLYTDKTYAMGHLIQRKK [TNFSF13B] | 2.4 ± 1 | 2.12 ± 0.53
LVVLRFLTMNSEDERRDAEERASL [KCNK9] | 2.68 ± 0.15 | 2.62 ± 0.28
NIMGIENICELAARMLFSAVEWAR [NR2F2] | 3.04 ± 0.18 | 2.79 ± 0.25
CSYVVTRTISCHVQNGTYLQRVLQ [EMID1] | 2.44 ± 0.53 | 2.6 ± 0.36
LCQKQVKAQLPRRESERRNHSLAR [FBXO28] | 3.81 ± 0.14 | 4.23 ± 0.17
LIDQRYFQVLCSINSIIHNPRAPV [CEP70] | – | 2.07 ± 0.12
AEQEPTRKLFEVESVTHHDYRMEL [SPAG8] | 4.16 ± 0.16 | 4.33 ± 0.18
SLVLILSLSYTVLIVGRIAIGVSI [SLC2A12] | 2.94 ± 0.2 | 3.41 ± 0.33
LLSRLEEEEQDILQRLRENAAHLG [TRIM39] | 3.63 ± 0.16 | 3.71 ± 0.33
RYLAVLESPIPEDKDRRFVFSYFL [EFHC1] | 2.37 ± 0.38 | 2.25 ± 0.85

Sequence | protein stability index (treatment: DMSO) | protein stability index (treatment: MLN4924 1 uM, 8 h)
KEPATMSWLEENVHEVLQAVDAGD [TCF25] | 5.05 ± 0.25 | 5.13 ± 0.17
TLQSITWQMIEQIQFIKLFGMAKI [HNF4A] | 2.86 ± 0.6 | 2.87 ± 0.42
LWLTASQPCSIVDVEFLPVYHPSP [LPCAT4] | 3.02 ± 0.74 | 2.53 ± 0.37
EEYTTGMADCILVNSQFTAAVFKE [ALG2] | 3.21 ± 0.27 | 3.26 ± 0.24
TRQLSLAVKDGLIVETLTVGCKGS [ZMYND11] | 3.17 ± 0.15 | 3.49 ± 0.26
EILRYMKEFTLLLSAANVCLDPII [P2RY14] | 2.44 ± 0.47 | 2.26 ± 0.31
TVMEKCSDGWWRGSYNGQIGWFPS [NCK2] | 2.45 ± 0.51 | 2.26 ± 0.37
EVLLDHLKAHAEEKPPSGTKEKKH [PLAGL1] | 4.88 ± 0.2 | 5.08 ± 0.14
FSFMYILVGLTVIGAFLNLVVLRF [KCNK9] | 3.18 ± 0.13 | 3.25 ± 0.31
FLFVLARVPAGIFKHTLSISRALL [MFSD9] | 3.29 ± 0.23 | 2.81 ± 0.11
GWLQHDFGHLSVFSTSKWNHLLHH [FADS1] | 2.04 ± 0.44 | 2.19 ± 0.29
FFRSLLPNYTMEGERPEEGVAGGL [TCF25] | 3.09 ± 0.32 | 3.52 ± 0.15
LSTNNNTLRDHFKGISSHSRSSLM [SLC2A12] | 2.93 ± 0.3 | 3.3 ± 0.16
IRRFLSAFHEPQVGLIQAAQQLLC [DFFB] | 2.18 ± 0.38 | 2.14 ± 0.17
VEPETRAVIRWMHSFNFVLSANLH [CPN1] | 3.1 ± 0.12 | 3.19 ± 0.27
GSRMMAVAALVVNFSQPVAGRPSL [NLN] | 3.1 ± 0.68 | 2.56 ± 1.2
HDIDCQWVDITDVPPGDYLFQVVI [LOXL2] | 3.01 ± 0.2 | 2.92 ± 0.41
GYGGGLGAGFGGGLGAGFGGGFAG [KRT16] | 2.65 ± 0.38 | 2.47 ± 0.28
INGLRRVLDELTLARADLEMQIEN [KRT17] | 3.1 ± 0.45 | 2.82 ± 0.38
RRERELERRELAVEQGERALERRR [ZBED3] | 5.03 ± 0.44 | 5.18 ± 0.63
GGIKTVDMRDPTYRPLKQELQGLD [SPSB1] | 4.18 ± 0.37 | 4.33 ± 0.27
ESTFKNTEISFILGQEFDEVTADD [FABP4] | 4.74 ± 0.13 | 5.03 ± 0.18

Sequence | protein stability index (treatment: DMSO) | protein stability index (treatment: MLN4924 1 uM, 8 h)
GLSAPARCLVRCLLRREPAERLTA [TRIB3] | 2.33 ± 0.12 | 2.16 ± 0.32
PQEAAGAQGRAGAPVPEPPKEEQQ [EPB41L3] | 5.2 ± 0.45 | 5.75 ± 0.26
SWNNNDRSLNVFVKEDDKLIFHRH [SPSB1] | 3.17 ± 0.13 | 3.29 ± 0.21
DYELLQMLQIVVGVRDSGSPPLHA [PCDHGC5] | 2.3 ± 0.41 | 2.18 ± 0.17
SEEGQNGSSPKSKTKWTKEDGHRT [ADD1] | 5.36 ± 0.29 | 5.36 ± 0.23
ARLQDFQELELVLMISENNFLFRN [ANKRD40] | 2.97 ± 0.63 | 2.66 ± 0.58
APGFGEDVPNRLVDNIDMIDGDGD [BEX5] | 5.5 ± 0.23 | 5.59 ± 0.19
IIELRRTVNALEIELQAQHSMRNS [KRT36] | 2.38 ± 0.26 | 2.32 ± 0.33
CQECGKTFRVSSDLIKHQRIHTEE [ZNF75A] | 5.26 ± 0.4 | 5.41 ± 0.31
RQLYAVNRRLRALEEQGATWRHRE [FATE1] | 3.52 ± 0.3 | 3.56 ± 0.15
DKFVIVDCRYPYEYEGGHIKTAVN [CDC25B] | 2.48 ± 0.28 | 2.21 ± 0.23
SQENSINPIQKEEDEGVDLSEGSS [SPANXN3] | 5.5 ± 0.2 | 5.64 ± 0.084
TAQVQKDARIGEAEAKRDAGIREA [FLOT1] | 5.34 ± 0.16 | 5.31 ± 0.19
AGYEVDKIAQNLDFVNLMAYDFHG [CHIT1] | 2.28 ± 0.41 | 2.36 ± 0.19
VRKANRIKECLSKGTFSDVTFKLD [RHOBTB1] | 3.33 ± 0.21 | 3.43 ± 0.19
HHHLHKTLREITDQEHNVAALKQA [TEKT4] | 4.35 ± 0.13 | 4.52 ± 0.11
DIELDAARGDAVCTACGSVLEDNI [BRF1] | 4.88 ± 0.15 | 5.01 ± 0.37
SDPETKDFWLNMAALTEALQRQAE [FCHO1] | 3.29 ± 0.22 | 3.23 ± 0.32
KEVMLFGHGTRKRVPLGRLELLEE [RSAD1] | 3.6 ± 0.19 | 3.59 ± 0.28
GSKFRYSGRTQAQTRRASALIDRP [EPB41L3] | 3.35 ± 0.41 | 3.44 ± 0.27
KAKHFKCHICHKKLYTGPGLAIHC [ZNF207] | 2.33 ± 0.23 | 2.62 ± 0.76
